# Measurements reported in paper PMC7822889.
# “And” between values parts separate entries of the source, which are not always exact repeats. Identical values can stand only once.
# Target: SpyCatcher003-mi3 VLP
substance,measurement,value
SpyTag-RBD (from UniProt P0DTC2 331-529) (domain or fragment),display efficiency,93%
same,display efficiency (1:1 molar ratio),64%
same,stoichiometry N,56 RBDs per VLP and 38 RBD per VLP
